{
  "source": "IntAct's records for PubMed 22266823",
  "parents": {"B1": {"name": "Fanconi anemia core complex-associated protein 20 (Homo sapiens), Q6NZ36-1 (parent)", "chain": "MEAARRPRLGLSRRRPRPAGGPSGGRPWFLLGGDERERLWAELLRTVSPELILDHEVPSLPAFPGQEPRCGPEPTEVFTVGPKTFSWTPFPPDLWGPGRSYRLLHGAGGHLESPARSLPQRPAPDPCRAPRVEQQPSVEGAAALRSCPMCQKEFAPRLTQLDVDSHLAQCLAESTEDVTW", "partner": "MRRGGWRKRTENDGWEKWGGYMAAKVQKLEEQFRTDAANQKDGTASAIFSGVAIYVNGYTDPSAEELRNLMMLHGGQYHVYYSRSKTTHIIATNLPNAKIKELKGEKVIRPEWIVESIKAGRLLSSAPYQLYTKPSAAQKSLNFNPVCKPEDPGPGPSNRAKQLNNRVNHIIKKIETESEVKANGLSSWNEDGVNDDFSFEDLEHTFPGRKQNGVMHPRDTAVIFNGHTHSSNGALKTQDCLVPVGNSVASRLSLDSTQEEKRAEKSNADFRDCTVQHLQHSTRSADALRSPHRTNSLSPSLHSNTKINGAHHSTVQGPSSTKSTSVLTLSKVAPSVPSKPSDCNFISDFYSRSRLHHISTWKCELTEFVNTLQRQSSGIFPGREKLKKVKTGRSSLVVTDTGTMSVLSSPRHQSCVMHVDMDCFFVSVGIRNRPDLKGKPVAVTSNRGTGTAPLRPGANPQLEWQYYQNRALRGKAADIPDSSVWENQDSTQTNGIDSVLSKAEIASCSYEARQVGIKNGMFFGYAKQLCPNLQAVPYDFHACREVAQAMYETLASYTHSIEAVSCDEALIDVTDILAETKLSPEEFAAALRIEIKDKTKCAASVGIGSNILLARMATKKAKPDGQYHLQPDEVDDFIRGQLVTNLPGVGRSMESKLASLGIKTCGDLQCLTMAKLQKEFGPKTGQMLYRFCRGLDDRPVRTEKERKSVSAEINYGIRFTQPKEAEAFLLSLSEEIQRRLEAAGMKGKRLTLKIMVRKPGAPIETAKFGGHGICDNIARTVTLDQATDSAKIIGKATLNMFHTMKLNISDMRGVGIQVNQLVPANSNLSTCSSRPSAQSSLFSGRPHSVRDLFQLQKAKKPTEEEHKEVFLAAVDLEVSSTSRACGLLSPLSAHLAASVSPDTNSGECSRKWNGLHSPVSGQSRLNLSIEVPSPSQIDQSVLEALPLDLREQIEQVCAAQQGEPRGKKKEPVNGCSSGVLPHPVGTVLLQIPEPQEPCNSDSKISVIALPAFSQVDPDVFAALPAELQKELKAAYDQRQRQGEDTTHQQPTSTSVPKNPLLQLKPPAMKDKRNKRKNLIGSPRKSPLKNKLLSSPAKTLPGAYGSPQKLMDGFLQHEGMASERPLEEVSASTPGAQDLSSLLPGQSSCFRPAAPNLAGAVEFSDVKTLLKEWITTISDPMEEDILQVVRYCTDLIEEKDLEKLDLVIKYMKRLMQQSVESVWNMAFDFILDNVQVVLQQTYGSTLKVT"}},
  "data": [
    {"variants_of": "B1", "settings": "with rev1_mouse Rev1, Q920Q2", "values": [
      {"variant": "MEAARRPRLGLSRRRPRPAGGPSGGRPWFLLGGDERERLWAELLRTVSPELILDHEVPSLPAFPGQEPRCGPEPTEVFTVGPKTFSWTPFPPDLWGPGRSYRLLHGAGGHLESPARSLPQRPAPDPCRAPRVEQQPSVEGAAALRSAPMAQKEFAPRLTQLDVDSHLAQCLAESTEDVTW", "note": "[C147A;C150A]", "effect of a mutation on the interaction": "disrupting interaction strength"}
    ]}
  ]
}
